This note sets out measurements from US20230167164A1 (IMMUNOWAKE, published 2023).

The experiment addresses T1, human IL-2 receptor (human, UniProt P01589 22-272; P14784 27-551; P31785 23-369).
T1 construct: whole, on cells; also called IL-2Rα, IL-2Rβ, IL-2Rγ; HEK-Blue IL-2 cells
T1 sequence (looked up) 1: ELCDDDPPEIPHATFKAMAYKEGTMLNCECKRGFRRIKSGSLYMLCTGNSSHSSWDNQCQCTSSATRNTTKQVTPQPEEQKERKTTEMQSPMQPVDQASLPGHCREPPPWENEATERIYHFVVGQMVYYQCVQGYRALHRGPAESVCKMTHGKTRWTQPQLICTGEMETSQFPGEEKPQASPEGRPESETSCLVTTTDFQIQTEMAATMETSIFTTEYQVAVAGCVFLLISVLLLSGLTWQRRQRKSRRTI
T1 sequence (looked up) 2: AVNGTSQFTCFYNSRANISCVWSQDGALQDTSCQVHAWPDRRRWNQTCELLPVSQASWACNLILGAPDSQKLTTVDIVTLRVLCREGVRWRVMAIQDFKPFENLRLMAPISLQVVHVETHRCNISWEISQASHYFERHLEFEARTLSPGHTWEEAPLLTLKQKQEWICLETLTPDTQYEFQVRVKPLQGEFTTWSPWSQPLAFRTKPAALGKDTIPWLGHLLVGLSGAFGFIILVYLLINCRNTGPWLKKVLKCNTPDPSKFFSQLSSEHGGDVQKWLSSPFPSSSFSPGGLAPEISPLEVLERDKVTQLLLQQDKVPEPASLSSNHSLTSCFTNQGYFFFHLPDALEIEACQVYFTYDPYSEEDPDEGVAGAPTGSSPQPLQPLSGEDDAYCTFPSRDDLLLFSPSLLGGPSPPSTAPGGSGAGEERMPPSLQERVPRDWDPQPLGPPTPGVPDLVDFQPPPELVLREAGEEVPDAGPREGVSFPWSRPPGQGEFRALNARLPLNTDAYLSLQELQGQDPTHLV
T1 sequence (looked up) 3: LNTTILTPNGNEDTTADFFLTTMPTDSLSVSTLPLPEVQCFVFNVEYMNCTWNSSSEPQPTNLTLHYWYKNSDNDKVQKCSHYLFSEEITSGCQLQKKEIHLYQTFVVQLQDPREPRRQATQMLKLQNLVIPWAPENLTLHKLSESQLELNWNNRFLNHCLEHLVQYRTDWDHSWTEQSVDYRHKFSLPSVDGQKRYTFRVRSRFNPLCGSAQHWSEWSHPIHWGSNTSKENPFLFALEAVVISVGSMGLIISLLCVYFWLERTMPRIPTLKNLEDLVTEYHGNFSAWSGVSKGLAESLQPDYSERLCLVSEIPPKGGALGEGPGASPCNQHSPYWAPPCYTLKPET
In words: FACS on HEK-Blue IL-2 cells (IL-2 receptor, no PD-1).

B1: ligand-IL-2 mutant-PD-L2-Fc (Fc fusion)
chain 1: LFTVTVPKELYIIEHGSNVTLECNFDTGSHVNLGAITASLQKVENDTSPHRERATLLEEQLPLGKASFHIPQVQVRDEGQYQCIIIYGVAWDYKYLTLKVKASYRKINTHILKVPETDEVELTCQATGYPLAEVSWPNVSVPANTSHSRTPEGLYQVTSVLRLKPPPGRNFSCVFWNTHVRELTLASIDLQSQMEPRTHPTGGGGSAPTSSSTKKTQLQLEHLLLDLQMILNGINNYKNPKLTDMLTFEFYMPKKATELKHLQCLERELKPLEEVLNLAQSKNFHLRPRDLISNINVIVLELKGSETTFMCEYADETATIVEFLNRWITFCQSIISTLTDKTHTCPPCPAPEDEGGPSVFLFPPKPKDTLMISRTPEVTCVVVDVSHEDPEVKFNWYVDGVEVHNAKTKPREEQYNSTYRVVSVLTVLHQDWLNGKEYKCKVSNKALPAPIEKTISKAKGQPREPQVYVYPPSREEMTKNQVSLTCLVKGFYPSDIAVEWESNGQPENNYKTTPPVLDEDGSFALVSKLTVDKSRWQQGNVFSCSVMHEALHNHYTQKSLSLSPGK
chain 2: LFTVTVPKELYIIEHGSNVTLECNFDTGSHVNLGAITASLQKVENDTSPHRERATLLEEQLPLGKASFHIPQVQVRDEGQYQCIIIYGVAWDYKYLTLKVKASYRKINTHILKVPETDEVELTCQATGYPLAEVSWPNVSVPANTSHSRTPEGLYQVTSVLRLKPPPGRNFSCVFWNTHVRELTLASIDLQSQMEPRTHPTGGGGSDKTHTCPPCPAPEKKGGPSVFLFPPKPKDTLMISRTPEVTCVVVDVSHEDPEVKFNWYVDGVEVHNAKTKPREEQYNSTYRVVSVLTVLHQDWLNGKEYKCKVSNKALPAPIEKTISKAKGQPREPQVYVLPPSREEMTKNQVSLLCLVKGFYPSDIAVEWESNGQPENRYMTWPPVLDSDGSFFLYSKLTVDKSRWQQGNVFSCSVMHEALHNHYTQKSLSLSPGK
notes: also called IL-2(R38D/K43E/E61R)/PD-L2-Fc immunocytokine; construct #11
Consider B1, for which the binding result was “no binding”.
